# Data reported in article doi:10.64898/2025.12.15.694324, “Dimerization of human PARP15 is required for NAD^+ binding and automodification” (bioRxiv, 2025).
# Molecular target: the molecule itself
# Assay: SEC-MALS; 50 µg of each sample, Superdex 200 increase 10/300, 30 mM HEPES pH 7.5, 300 mM NaCl, 5 % glycerol, 0.5 mM TCEP
protein,measurement,value
"PARP15^FL WT, full-length long isoform 1 of human PARP15 (enzyme, UniProt Q460N3 1-678, looked up, weakly MARylated from expression in Sf21 insect cells, PARP15, human, full-length canonical isoform 1 (the longer isoform, both macrodomains present); Cloned in pFastBac-His-MBP (#30116); tags cleaved with TEV protease; source: Sf21 insect cells (baculovirus), purified (Ni-NTA, amylose resin, TEV cleavage, SEC)) MAAPGPLPAAALSPGAPTPRELMHGVAGVTSRAGRDREAGSVLPAGNRGARKASRRSSSRSMSRDNKFSKKDCLSIRNVVASIQTKEGLNLKLISGDVLYIWADVIVNSVPMNLQLGGGPLSRAFLQKAGPMLQKELDDRRRETEEKVGNIFMTSGCNLDCKAVLHAVAPYWNNGAETSWQIMANIIKKCLTTVEVLSFSSITFPMIGTGSLQFPKAVFAKLILSEVFEYSSSTRPITSPLQEVHFLVYTNDDEGCQAFLDEFTNWSRINPNKARIPMAGDTQGVVGTVSKPCFTAYEMKIGAITFQVATGDIATEQVDVIVNSTARTFNRKSGVSRAILEGAGQAVESECAVLAAQPHRDFIITPGGCLKCKIIIHVPGGKDVRKTVTSVLEECEQRKYTSVSLPAIGTGNAGKNPITVADNIIDAIVDFSSQHSTPSLKTVKVVIFQPELLNIFYDSMKKRDLSASLNFQSTFSMTTCNLPEHWTDMNHQLFCMVQLEPGQSEYNTIKDKFTRTCSSYAIEKIERIQNAFLWQSYQVKKRQMDIKNDHKNNERLLFHGTDADSVPYVNQHGFNRSCAGKNAVSYGKGTYFAVDASYSAKDTYSKPDSNGRKHMYVVRVLTGVFTKGRAGLVTPPPKNPHNPTDLFDSVTNNTRSPKLFVVFFDNQAYPEYLITFTA",stoichiometry N,~2
